Measured values: patent US20260216242A1 (ALMAC DISCOVERY, published 2026)

What was measured:
[1] = molecular target: T1, human ALPI (intestinal alkaline phosphatase) expressed on the surface of CHO cells (human, UniProt P09923 20-503); test: flow cytometry on CHO-ALPI cells
T1 construct: whole, on cells; The cell-surface form has none; also called CHO-ALPI; hALPI
T1 sequence (looked up): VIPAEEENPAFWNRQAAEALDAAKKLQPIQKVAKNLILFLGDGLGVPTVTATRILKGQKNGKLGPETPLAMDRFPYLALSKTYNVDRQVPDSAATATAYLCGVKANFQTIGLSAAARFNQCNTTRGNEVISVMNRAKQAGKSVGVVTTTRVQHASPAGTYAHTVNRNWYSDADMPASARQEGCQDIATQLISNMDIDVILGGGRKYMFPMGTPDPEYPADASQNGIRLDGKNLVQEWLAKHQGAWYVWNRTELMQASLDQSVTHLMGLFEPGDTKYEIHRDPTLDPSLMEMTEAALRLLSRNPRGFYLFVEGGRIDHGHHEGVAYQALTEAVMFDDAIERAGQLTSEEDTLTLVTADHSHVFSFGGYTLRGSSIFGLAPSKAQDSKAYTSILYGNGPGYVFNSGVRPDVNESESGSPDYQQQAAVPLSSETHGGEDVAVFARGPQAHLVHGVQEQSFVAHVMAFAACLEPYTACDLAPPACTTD

[2] = molecular target: T2, human ALPPL2 (alkaline phosphatase, germ cell type) expressed on the surface of CHO cells (human, UniProt P10696 20-503); test: cell-based or functional assay
[3] = molecular target: T1, human ALPI (intestinal alkaline …); test: cell-based or functional assay
[4] = molecular target: T3, human ALPL (tissue non-specific alkaline phosphatase) expressed on the surface of CHO cells (human, UniProt P05186 18-501); test: cell-based or functional assay
T3 sequence (looked up): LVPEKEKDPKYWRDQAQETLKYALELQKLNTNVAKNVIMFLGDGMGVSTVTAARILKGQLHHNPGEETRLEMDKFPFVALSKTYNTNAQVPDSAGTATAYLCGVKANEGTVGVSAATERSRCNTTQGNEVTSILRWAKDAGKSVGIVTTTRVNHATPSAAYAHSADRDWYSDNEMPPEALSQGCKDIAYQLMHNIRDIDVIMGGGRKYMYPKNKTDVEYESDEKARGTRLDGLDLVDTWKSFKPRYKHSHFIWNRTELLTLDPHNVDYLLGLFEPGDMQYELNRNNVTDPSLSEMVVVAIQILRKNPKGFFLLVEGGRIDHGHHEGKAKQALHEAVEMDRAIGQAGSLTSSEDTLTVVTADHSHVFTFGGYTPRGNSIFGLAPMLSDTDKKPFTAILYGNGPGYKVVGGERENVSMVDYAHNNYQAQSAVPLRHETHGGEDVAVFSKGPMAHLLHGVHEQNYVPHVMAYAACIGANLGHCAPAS

[5] = molecular target: T3, human ALPL (tissue non-specific …); test: flow cytometry, CHO-ALPL cells
[6] = molecular target: T4, human ALPP (alkaline phosphatase, placental type) expressed on the surface of CHO cells (human, UniProt P05187 23-506); test: flow cytometry on CHO-ALPP cells, apparent KD (KDapp)
T4 construct: also called CHO-ALPP; hALPP
Procedure: (§1) Biparatopic VHH-hFc drug conjugates were assessed for human ALPP, ALPPL2, ALPI and ALPL cell-surface binding by flow cytometry. Binders were screened on CHO cells stably expressing human ALPP, ALPPL2, ALPI or ALPL.
(§2) Cell surface binding of test agents to hALPP isoforms was characterized in four CHO-ALPP isoform transfectant cell lines (CHO-ALPP, CHO-ALPPL2, CHO-ALPI and CHO-ALPL) and the resulting KDapp values determined. Adherent cells were detached from tissue culture flasks by incubating with 0.1% EDTA/PBS solution at 37° C. for […] or until cells detached easily. Cells were re-suspended in ice-cold PBS/2% FCS in 15 ml tubes and centrifuged at 1700 rpm for 5 mins at 4° C. Supernatant was removed and the cell pellet re-suspended in PBS/2% FCS. […] Cells were incubated with 100 μl of test agents at a range of concentrations, plus controls for 1 hr on ice. The sample plate was centrifuged at 1700 rpm for 5 mins at 4° C. The supernatant was removed, and a wash performed by re-suspending the cell pellets in 0.25 mL of ice-cold PBS/2% FCS using a multichannel pipette. Samples were again centrifuged at 1700 rpm for 5 min at 4° C. Supernatant was removed and two further washes performed as described. After the final wash and centrifugation step, excess liquid was removed by blotting the plate on tissue paper. Binding of VHH-hFc agents was determined by adding 100 μl of Fitc-anti-human Ab (ThermoFisher) and incubating for 30 mins on ice in the dark. Wash steps were performed as described previously. All cell pellets were finally re-suspended in 0.28 ml of ice-cold PBS/2% FCS and left on ice in the dark prior to analysis on a Merck-Millipore Guava EasyCyte HT or Thermo Fisher Attune N×T flow cytometer.

[7] = molecular target: T2, human ALPPL2 (alkaline phosphatase, …); test: flow cytometry on CHO-ALPPL2 cells, apparent KD (KDapp)
Procedure: as §1, §2

[8] = molecular target: T5, human ALPL on CHO cells (human, UniProt P05186 18-501); test: flow cytometry, CHO cells stably expressing human ALPL; PDC detected with FITC anti-human Ab
T5 construct: whole, on cells; also called CHO-ALPL
T5 sequence (looked up): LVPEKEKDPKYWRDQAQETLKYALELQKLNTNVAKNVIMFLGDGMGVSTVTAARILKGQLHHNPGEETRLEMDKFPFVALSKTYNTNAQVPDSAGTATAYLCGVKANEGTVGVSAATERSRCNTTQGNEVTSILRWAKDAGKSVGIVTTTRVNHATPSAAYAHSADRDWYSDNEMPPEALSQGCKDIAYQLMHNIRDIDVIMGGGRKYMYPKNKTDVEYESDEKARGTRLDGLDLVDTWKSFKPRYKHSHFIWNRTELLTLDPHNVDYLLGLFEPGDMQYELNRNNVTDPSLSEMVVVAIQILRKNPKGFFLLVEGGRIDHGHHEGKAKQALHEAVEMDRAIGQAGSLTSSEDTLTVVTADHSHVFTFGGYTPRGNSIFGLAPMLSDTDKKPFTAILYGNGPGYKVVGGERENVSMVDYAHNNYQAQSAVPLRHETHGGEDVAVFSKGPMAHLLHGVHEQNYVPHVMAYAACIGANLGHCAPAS
Procedure: as §1, §2

T2 sequence (P10696 20-503): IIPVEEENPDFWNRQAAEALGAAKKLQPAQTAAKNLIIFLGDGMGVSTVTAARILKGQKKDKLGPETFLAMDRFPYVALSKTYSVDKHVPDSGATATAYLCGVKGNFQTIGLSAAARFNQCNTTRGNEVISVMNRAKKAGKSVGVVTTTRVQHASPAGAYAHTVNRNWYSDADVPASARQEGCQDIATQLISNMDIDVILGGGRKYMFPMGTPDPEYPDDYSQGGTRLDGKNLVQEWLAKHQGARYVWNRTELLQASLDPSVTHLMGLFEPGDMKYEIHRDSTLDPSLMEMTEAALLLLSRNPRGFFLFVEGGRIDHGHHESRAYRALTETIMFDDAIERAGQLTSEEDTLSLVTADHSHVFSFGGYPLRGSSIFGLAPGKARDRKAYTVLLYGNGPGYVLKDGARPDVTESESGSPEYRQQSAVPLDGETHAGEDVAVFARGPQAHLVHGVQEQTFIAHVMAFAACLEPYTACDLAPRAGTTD
T4 sequence (P05187 23-506 limits assumed): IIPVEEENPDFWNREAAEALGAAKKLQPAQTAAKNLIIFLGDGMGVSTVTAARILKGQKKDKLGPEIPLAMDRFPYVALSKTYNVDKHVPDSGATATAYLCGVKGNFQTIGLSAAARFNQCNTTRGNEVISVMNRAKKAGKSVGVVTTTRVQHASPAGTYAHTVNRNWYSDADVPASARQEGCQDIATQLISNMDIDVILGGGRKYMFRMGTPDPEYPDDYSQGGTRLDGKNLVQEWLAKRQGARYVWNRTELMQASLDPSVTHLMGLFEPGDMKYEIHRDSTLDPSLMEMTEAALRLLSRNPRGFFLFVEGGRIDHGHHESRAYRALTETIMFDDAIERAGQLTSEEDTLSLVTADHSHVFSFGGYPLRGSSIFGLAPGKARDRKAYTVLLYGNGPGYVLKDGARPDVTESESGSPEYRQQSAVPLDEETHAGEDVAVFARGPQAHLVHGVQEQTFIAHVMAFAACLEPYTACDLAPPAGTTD

B1: A06 E06-hFc (S239/442C T366Y/Y407T), [G4S]3 linker, MC-vc-PAB-MMAE conjugate, #639 (Fc fusion, DAR 4)
chain 1: QVHLVESGGGLVQAGGSLRLSCAASGRTFLSMGWFRQAPGKEREFVAAISWTGGSTGYADSVKGRFTISRESDKETMYLQMNSLKPEDTAVYYCAARGDVYYGGDDATRYKYWGQGTQVTVSSGGGGSGGGGSGGGGSEPKSSDKTHTCPPCPAPELLGGPCVFLFPPKPKDTLMISRTPEVTCVVVDVSHEDPEVKFNWYVDGVEVHNAKTKPREEQYNSTYRVVSVLTVLHQDWLNGKEYKCKVSNKALPAPIEKTISKAKGQPREPQVYTLPPSRDELTKNQVSLYCLVKGFYPSDIAVEWESNGQPENNYKTTPPVLDSDGSFFLYSKLTVDKSRWQQGNVFSCSVMHEALHNHYTQKSLCLSPGK
chain 2: QVHLVESGGGLVQAGGSLRLSCAASRRSFSEYAMGWFRQAPGKEREFVAAIGWSGVIEYADSVKGRFTISRDNAKDTVYLQMNSLKPEDTAVYYCAAGLGIRVVSQTPAYWGQGTQVTVSSGGGGSGGGGSGGGGSEPKSSDKTHTCPPCPAPELLGGPCVFLFPPKPKDTLMISRTPEVTCVVVDVSHEDPEVKFNWYVDGVEVHNAKTKPREEQYNSTYRVVSVLTVLHQDWLNGKEYKCKVSNKALPAPIEKTISKAKGQPREPQVYTLPPSRDELTKNQVSLTCLVKGFYPSDIAVEWESNGQPENNYKTTPPVLDSDGSFFLTSKLTVDKSRWQQGNVFSCSVMHEALHNHYTQKSLCLSPGK
modifications: MC-vc-PAB-MMAE on Cys of S239C and S442C (EU numbering)
notes: Biparatopic knob-into-hole VHH-hFc heterodimer, DAR 4; The assignment of T366Y to the first named VHH and Y407T to the second follows the order of the name; No paragraph spells out this pair; also called A06-E06 hFc-vcPAB-MMAE; A06-E06hFc-vc-MMAE
[1]
  MFI on CHO-ALPI cells at 350 nM as percent of MFI on CHO-ALPP cells (KDapp not-determinable): ≤ 1%
[2]
  IC50 at 96 h, cell-killing of CHO-ALPPL2 cells: 8.6 nM
[3]
  IC50 at 96 h, cell-killing of CHO-ALPI cells: > 1000 nM
[4]
  IC50 at 96 h, cell-killing of CHO-ALPL cells: > 1000 nM
[5]
  binding result: no binding (tested: 350 nM (highest concentration))
[6]
  Kd: 8.5 nM
[7]
  Kd: 4.2 nM

B2: A06-E06-hFc-vcPAB-MMAE [G4S]1 (Fc fusion, DAR 4)
chain 1: QVHLVESGGGLVQAGGSLRLSCAASGRTFLSMGWFRQAPGKEREFVAAISWTGGSTGYADSVKGRFTISRESDKETMYLQMNSLKPEDTAVYYCAARGDVYYGGDDATRYKYWGQGTQVTVSSGGGGSEPKSSDKTHTCPPCPAPELLGGPCVFLFPPKPKDTLMISRTPEVTCVVVDVSHEDPEVKFNWYVDGVEVHNAKTKPREEQYNSTYRVVSVLTVLHQDWLNGKEYKCKVSNKALPAPIEKTISKAKGQPREPQVYTLPPSRDELTKNQVSLYCLVKGFYPSDIAVEWESNGQPENNYKTTPPVLDSDGSFFLYSKLTVDKSRWQQGNVFSCSVMHEALHNHYTQKSLCLSPGK
chain 2: QVHLVESGGGLVQAGGSLRLSCAASRRSFSEYAMGWFRQAPGKEREFVAAIGWSGVIEYADSVKGRFTISRDNAKDTVYLQMNSLKPEDTAVYYCAAGLGIRVVSQTPAYWGQGTQVTVSSGGGGSEPKSSDKTHTCPPCPAPELLGGPCVFLFPPKPKDTLMISRTPEVTCVVVDVSHEDPEVKFNWYVDGVEVHNAKTKPREEQYNSTYRVVSVLTVLHQDWLNGKEYKCKVSNKALPAPIEKTISKAKGQPREPQVYTLPPSRDELTKNQVSLTCLVKGFYPSDIAVEWESNGQPENNYKTTPPVLDSDGSFFLTSKLTVDKSRWQQGNVFSCSVMHEALHNHYTQKSLCLSPGK
modifications: MC-vc-PAB-MMAE on Cys 239 and Cys 442 (EU numbering)
notes: Biparatopic drug conjugate, DAR 4; also called #710
[8]
  binding result: no binding (tested: 350 nM)

B3: A06-E10-hFc-vcPAB-MMAE [G4S]1 (Fc fusion, DAR 4)
chain 1: QVHLVESGGGLVQAGGSLRLSCAASGRTFLSMGWFRQAPGKEREFVAAISWTGGSTGYADSVKGRFTISRESDKETMYLQMNSLKPEDTAVYYCAARGDVYYGGDDATRYKYWGQGTQVTVSSGGGGSEPKSSDKTHTCPPCPAPELLGGPCVFLFPPKPKDTLMISRTPEVTCVVVDVSHEDPEVKFNWYVDGVEVHNAKTKPREEQYNSTYRVVSVLTVLHQDWLNGKEYKCKVSNKALPAPIEKTISKAKGQPREPQVYTLPPSRDELTKNQVSLYCLVKGFYPSDIAVEWESNGQPENNYKTTPPVLDSDGSFFLYSKLTVDKSRWQQGNVFSCSVMHEALHNHYTQKSLCLSPGK
chain 2: QVQLVESGGGLVQAGGSLRLSCAVSGRALSDYNIGWFRQAPGKEREFVARKTWDGSSTRYDDSVKGRFTVSIEDAKNTAYLQMSSLKTEDTAVYYCAAGRYSRARGWEYDYWGQGTQVTVSSGGGGSEPKSSDKTHTCPPCPAPELLGGPCVFLFPPKPKDTLMISRTPEVTCVVVDVSHEDPEVKFNWYVDGVEVHNAKTKPREEQYNSTYRVVSVLTVLHQDWLNGKEYKCKVSNKALPAPIEKTISKAKGQPREPQVYTLPPSRDELTKNQVSLTCLVKGFYPSDIAVEWESNGQPENNYKTTPPVLDSDGSFFLTSKLTVDKSRWQQGNVFSCSVMHEALHNHYTQKSLCLSPGK
modifications: MC-vc-PAB-MMAE on Cys 239 and Cys 442 (EU numbering)
notes: Biparatopic drug conjugate, DAR 4; also called #711
[8]
  binding result: no binding (tested: 350 nM)

B4: A06-F05-hFc-vcPAB-MMAE [G4S]1 (Fc fusion, DAR 4)
chain 1: QVHLVESGGGLVQAGGSLRLSCAASGRTFLSMGWFRQAPGKEREFVAAISWTGGSTGYADSVKGRFTISRESDKETMYLQMNSLKPEDTAVYYCAARGDVYYGGDDATRYKYWGQGTQVTVSSGGGGSEPKSSDKTHTCPPCPAPELLGGPCVFLFPPKPKDTLMISRTPEVTCVVVDVSHEDPEVKFNWYVDGVEVHNAKTKPREEQYNSTYRVVSVLTVLHQDWLNGKEYKCKVSNKALPAPIEKTISKAKGQPREPQVYTLPPSRDELTKNQVSLYCLVKGFYPSDIAVEWESNGQPENNYKTTPPVLDSDGSFFLYSKLTVDKSRWQQGNVFSCSVMHEALHNHYTQKSLCLSPGK
chain 2: QVQLVESGGGLVQAGGSLRLSCAASGRAFGDYNIGWFRQAPGKEREFVARRTWDGSSTRYDDSVKGRFTVSIDNAKNTAYLQMNSLKTEDTAVYYCAAGRYSRVRGWEYDYWGQGTQVTVSSGGGGSEPKSSDKTHTCPPCPAPELLGGPCVFLFPPKPKDTLMISRTPEVTCVVVDVSHEDPEVKFNWYVDGVEVHNAKTKPREEQYNSTYRVVSVLTVLHQDWLNGKEYKCKVSNKALPAPIEKTISKAKGQPREPQVYTLPPSRDELTKNQVSLTCLVKGFYPSDIAVEWESNGQPENNYKTTPPVLDSDGSFFLTSKLTVDKSRWQQGNVFSCSVMHEALHNHYTQKSLCLSPGK
modifications: MC-vc-PAB-MMAE on Cys 239 and Cys 442 (EU numbering)
notes: Biparatopic drug conjugate, DAR 4
[8]
  binding result: no binding (tested: 350 nM)
